Experiments:
[1] = system: full-length mAKAP mutant with an internal deletion of residues 2053-2073 comprising the PKA binding site (ΔPKA)
[2] = system: full-length wildtype mAKAP (GFP-tagged) expressed in HEK293 cells
Chain of full-length wildtype mAKAP (GFP-tagged) expressed in HEK293 cells (chain, as listed by the source): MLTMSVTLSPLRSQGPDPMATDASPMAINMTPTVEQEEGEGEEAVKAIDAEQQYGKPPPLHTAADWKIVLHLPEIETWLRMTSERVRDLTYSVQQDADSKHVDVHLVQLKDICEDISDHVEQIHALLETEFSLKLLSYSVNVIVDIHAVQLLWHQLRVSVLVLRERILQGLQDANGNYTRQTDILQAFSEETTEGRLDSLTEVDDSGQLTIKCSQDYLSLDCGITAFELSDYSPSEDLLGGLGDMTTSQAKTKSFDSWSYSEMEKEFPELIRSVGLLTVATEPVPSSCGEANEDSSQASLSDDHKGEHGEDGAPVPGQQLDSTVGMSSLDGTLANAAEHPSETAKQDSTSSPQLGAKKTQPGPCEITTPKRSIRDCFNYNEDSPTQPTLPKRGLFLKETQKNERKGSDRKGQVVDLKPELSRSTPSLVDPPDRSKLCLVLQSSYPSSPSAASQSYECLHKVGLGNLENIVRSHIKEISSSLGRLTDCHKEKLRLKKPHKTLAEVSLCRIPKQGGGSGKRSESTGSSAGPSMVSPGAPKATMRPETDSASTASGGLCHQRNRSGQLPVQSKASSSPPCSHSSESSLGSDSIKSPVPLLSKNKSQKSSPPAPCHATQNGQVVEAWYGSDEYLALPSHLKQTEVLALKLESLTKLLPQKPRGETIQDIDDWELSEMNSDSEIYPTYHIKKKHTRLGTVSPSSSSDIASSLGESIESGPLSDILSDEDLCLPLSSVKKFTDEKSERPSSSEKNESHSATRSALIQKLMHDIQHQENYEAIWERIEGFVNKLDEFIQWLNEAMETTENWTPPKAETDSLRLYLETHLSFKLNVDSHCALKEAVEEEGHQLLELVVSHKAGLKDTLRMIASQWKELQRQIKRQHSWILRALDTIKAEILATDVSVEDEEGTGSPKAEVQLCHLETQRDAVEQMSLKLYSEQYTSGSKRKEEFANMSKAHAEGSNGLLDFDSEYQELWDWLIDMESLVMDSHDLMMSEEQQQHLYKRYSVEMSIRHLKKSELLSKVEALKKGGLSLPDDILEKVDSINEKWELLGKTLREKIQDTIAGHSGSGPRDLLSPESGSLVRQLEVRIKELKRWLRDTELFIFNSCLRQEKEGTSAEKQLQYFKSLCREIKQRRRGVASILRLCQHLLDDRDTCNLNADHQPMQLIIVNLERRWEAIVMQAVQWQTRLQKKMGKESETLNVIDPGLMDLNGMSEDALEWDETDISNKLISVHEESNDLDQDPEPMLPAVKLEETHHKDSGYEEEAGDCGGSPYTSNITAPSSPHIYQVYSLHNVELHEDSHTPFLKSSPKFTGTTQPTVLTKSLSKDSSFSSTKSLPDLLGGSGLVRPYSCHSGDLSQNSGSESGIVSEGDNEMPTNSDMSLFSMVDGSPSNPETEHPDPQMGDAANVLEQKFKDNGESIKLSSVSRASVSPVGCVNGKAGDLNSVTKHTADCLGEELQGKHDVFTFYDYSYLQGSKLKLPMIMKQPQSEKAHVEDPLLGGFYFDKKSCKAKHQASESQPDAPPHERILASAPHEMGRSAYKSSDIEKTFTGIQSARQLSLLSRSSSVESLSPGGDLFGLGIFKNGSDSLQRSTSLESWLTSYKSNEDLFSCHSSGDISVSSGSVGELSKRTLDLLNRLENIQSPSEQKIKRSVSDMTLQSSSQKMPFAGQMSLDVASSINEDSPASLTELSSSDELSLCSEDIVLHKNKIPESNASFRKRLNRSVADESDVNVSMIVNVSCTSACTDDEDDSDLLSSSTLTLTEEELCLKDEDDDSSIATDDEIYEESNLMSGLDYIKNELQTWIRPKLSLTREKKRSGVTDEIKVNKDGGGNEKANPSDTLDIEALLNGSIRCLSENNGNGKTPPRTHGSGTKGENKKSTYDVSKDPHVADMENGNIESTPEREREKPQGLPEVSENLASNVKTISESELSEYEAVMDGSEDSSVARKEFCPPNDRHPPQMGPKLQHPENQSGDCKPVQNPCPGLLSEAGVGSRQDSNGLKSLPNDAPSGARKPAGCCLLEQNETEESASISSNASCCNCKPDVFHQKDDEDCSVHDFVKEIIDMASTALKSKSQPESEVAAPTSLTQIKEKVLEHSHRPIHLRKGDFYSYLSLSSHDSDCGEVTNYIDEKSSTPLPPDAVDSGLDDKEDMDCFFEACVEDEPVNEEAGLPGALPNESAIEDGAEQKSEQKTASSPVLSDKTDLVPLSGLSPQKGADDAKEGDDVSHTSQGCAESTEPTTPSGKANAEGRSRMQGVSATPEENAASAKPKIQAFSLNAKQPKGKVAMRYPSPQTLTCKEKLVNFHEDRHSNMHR

Chain of full-length mAKAP mutant with an internal deletion of residues 2053-2073 comprising the PKA binding site (ΔPKA) (chain, as listed by the source mutant): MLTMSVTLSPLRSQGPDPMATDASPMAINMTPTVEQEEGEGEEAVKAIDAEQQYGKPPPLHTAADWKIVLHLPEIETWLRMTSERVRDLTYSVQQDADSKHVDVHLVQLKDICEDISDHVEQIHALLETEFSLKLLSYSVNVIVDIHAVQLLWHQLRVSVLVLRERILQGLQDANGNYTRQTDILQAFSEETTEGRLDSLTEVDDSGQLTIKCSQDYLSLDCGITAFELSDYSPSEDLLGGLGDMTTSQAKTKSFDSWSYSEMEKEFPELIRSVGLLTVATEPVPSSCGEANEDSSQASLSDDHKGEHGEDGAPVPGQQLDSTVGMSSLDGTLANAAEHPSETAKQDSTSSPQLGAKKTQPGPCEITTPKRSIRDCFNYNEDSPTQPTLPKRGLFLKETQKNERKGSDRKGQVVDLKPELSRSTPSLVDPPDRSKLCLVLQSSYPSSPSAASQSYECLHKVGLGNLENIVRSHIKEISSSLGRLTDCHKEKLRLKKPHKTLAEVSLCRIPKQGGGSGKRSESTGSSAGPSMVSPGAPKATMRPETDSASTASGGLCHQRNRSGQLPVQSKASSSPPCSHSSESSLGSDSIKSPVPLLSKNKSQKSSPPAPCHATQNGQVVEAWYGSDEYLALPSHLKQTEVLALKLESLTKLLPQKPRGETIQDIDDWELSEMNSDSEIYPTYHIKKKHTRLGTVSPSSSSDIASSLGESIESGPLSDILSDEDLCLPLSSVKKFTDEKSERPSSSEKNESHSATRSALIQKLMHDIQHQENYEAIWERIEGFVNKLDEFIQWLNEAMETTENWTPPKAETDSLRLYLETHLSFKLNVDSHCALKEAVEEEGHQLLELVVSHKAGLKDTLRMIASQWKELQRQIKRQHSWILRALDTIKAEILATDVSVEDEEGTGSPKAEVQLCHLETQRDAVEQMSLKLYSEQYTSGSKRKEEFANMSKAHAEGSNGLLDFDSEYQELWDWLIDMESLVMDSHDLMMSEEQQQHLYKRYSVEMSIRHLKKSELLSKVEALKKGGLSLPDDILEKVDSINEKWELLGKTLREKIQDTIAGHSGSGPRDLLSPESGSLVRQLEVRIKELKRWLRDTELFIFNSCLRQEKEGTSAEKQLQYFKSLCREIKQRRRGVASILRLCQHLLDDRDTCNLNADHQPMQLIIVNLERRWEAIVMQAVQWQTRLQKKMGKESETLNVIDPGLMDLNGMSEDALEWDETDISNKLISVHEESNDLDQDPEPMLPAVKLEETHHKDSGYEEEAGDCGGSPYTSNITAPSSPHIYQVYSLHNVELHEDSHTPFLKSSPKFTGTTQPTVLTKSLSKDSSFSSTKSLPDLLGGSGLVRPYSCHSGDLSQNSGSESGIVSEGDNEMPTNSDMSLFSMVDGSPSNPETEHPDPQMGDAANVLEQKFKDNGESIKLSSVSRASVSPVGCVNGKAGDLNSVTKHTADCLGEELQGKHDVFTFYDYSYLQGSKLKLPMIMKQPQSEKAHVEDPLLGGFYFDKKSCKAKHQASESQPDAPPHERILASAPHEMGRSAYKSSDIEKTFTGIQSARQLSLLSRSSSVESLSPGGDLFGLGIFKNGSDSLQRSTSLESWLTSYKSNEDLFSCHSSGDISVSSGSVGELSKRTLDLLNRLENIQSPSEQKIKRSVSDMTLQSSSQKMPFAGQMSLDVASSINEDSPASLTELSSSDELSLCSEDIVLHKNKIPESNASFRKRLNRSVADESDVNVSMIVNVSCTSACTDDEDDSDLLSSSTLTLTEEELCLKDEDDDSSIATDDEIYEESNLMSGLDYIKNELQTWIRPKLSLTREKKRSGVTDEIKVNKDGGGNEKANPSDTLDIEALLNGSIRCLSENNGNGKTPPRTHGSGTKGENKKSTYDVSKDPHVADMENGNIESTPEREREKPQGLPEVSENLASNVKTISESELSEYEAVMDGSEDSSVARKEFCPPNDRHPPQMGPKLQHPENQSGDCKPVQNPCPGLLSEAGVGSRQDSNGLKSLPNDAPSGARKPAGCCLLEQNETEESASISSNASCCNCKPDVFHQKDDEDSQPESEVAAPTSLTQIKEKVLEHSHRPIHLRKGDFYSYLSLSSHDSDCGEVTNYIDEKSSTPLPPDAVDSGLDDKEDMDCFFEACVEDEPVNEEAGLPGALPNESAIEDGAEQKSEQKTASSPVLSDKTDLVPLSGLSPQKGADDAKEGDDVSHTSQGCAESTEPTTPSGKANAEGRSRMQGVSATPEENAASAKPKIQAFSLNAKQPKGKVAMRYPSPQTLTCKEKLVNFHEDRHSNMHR

Substance: PKA (cAMP-dependent protein kinase) endogenous in HEK293 cells
- B56δ Ser-566 phosphorylation in mAKAP immunoprecipitates [1]: B56δ phosphorylation was detected only after FSK/IBMX treatment and only when B56δ was co-expressed with wildtype mAKAP and not the ΔPKA mutant
- phosphatase activity in mAKAP immunoprecipitates after Fsk/IBMX [1]: no increase was obtained when B56δ was co-expressed with the mAKAP ΔPKA mutant scaffold
- phosphatase activity in mAKAP immunoprecipitates after Fsk/IBMX [2]: cAMP elevation increased phosphatase activity in mAKAP complexes 1.7 fold
